Two molecules from PMC8333356 (Nature Communications, 2021) can be followed below.

The assay addresses receptor binding domain (RBD) of SARS-CoV-2 spike (SARS-CoV-2 Wuhan-Hu-1, UniProt P0DTC2). The assay is described as follows: cryo-EM structure. The settings on record: both partners purified.

B1: Nb36 (VHH)
VHH: VQLVESGGGLVQAGGSLTLTCAASGRTFSSETMDMGWFRQAPGKEREFVAADSWNDGSTYYADSVKGRFTISRDSAKNTLYLQMNSLKPEDTAVYYCAAETYSIYEKDDSWGYWGQGTQVTVS
notes: Cloned in pET-21b(+); also called class III Nb; source: E. coli BL21 (DE3), purified (cobalt resin, Superdex 75)
Regarding B1, the binding result is on record as “binds”.

B2: Nb105 (VHH)
VHH: VQLVESGGGLVQAGGSLRLSCAVSGRTFSTYGMAWFRQAPGKERDFVATITRSGETTLYADSVKGRFTISRDNAKNTVYLQMNSLKIEDTAVYYCAVRRDSSWGYSRDLFEYDYWGQGTQVTVS
notes: Cloned in pET-21b(+); also called class II Nb; source: E. coli BL21 (DE3), purified (cobalt resin, Superdex 75)
Turning to B2, the binding result is “binds”.
